Laboratory results taken from IntAct's records for PubMed 27135603.

B1: Inducible T-cell costimulator (Homo sapiens), Q9Y6W8 (parent)
chain: MKSGLWYFFLFCLRIKVLTGEINGSANYEMFIFHNGGVQILCKYPDIVQQFKMQLLKGGQILCDLTKTKGSGNTVSIKSLKFCHSQLSNNSVSFFLYNLDHSHANYYFCNLSIFDPPPFKVTLTGGYLHIYESQLCCQLKFWLPIGCAAFVVVCILGCILICWLTKKKYSSSVHDPNGEYMFMRAVNTAKKSRLTDVTL
partner: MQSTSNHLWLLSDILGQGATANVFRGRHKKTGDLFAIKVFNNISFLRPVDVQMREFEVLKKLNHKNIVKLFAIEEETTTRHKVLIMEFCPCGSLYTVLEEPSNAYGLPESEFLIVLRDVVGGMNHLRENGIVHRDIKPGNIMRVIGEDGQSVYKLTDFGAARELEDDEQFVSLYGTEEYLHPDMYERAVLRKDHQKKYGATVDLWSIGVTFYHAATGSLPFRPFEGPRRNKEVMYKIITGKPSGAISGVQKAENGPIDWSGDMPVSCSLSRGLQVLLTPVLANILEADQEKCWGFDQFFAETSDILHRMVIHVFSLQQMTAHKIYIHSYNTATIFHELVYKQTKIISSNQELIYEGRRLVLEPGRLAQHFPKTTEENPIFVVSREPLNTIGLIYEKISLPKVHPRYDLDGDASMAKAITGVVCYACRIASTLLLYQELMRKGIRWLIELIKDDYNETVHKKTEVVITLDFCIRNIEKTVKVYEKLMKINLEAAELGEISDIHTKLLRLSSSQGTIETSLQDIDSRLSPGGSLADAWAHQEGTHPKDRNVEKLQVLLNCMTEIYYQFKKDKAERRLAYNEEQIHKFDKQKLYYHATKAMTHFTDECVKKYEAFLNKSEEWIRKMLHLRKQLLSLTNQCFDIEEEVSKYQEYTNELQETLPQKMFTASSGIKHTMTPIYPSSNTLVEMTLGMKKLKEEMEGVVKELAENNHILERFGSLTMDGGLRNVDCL
B2: TNF receptor-associated factor 3 (Homo sapiens), Q13114 (parent)
chain: MESSKKMDSPGALQTNPPLKLHTDRSAGTPVFVPEQGGYKEKFVKTVEDKYKCEKCHLVLCSPKQTECGHRFCESCMAALLSSSSPKCTACQESIVKDKVFKDNCCKREILALQIYCRNESRGCAEQLMLGHLLVHLKNDCHFEELPCVRPDCKEKVLRKDLRDHVEKACKYREATCSHCKSQVPMIALQKHEDTDCPCVVVSCPHKCSVQTLLRSELSAHLSECVNAPSTCSFKRYGCVFQGTNQQIKAHEASSAVQHVNLLKEWSNSLEKKVSLLQNESVEKNKSIQSLHNQICSFEIEIERQKEMLRNNESKILHLQRVIDSQAEKLKELDKEIRPFRQNWEEADSMKSSVESLQNRVTELESVDKSAGQVARNTGLLESQLSRHDQMLSVHDIRLADMDLRFQVLETASYNGVLIWKIRDYKRRKQEAVMGKTLSLYSQPFYTGYFGYKMCARVYLNGDGMGKGTHLSLFFVIMRGEYDALLPWPFKQKVTLMLMDQGSSRRHLGDAFKPDPNSSSFKKPTGEMNIASGCPVFVAQTVLENGTYIKDDTIFIKVIVDTSDLPDP
partner: B1 partner
B3: TNF receptor-associated factor 2 (Homo sapiens), Q12933 (parent)
chain: MAAASVTPPGSLELLQPGFSKTLLGTKLEAKYLCSACRNVLRRPFQAQCGHRYCSFCLASILSSGPQNCAACVHEGIYEEGISILESSSAFPDNAARREVESLPAVCPSDGCTWKGTLKEYESCHEGRCPLMLTECPACKGLVRLGEKERHLEHECPERSLSCRHCRAPCCGADVKAHHEVCPKFPLTCDGCGKKKIPREKFQDHVKTCGKCRVPCRFHAIGCLETVEGEKQQEHEVQWLREHLAMLLSSVLEAKPLLGDQSHAGSELLQRCESLEKKTATFENIVCVLNREVERVAMTAEACSRQHRLDQDKIEALSSKVQQLERSIGLKDLAMADLEQKVLEMEASTYDGVFIWKISDFARKRQEAVAGRIPAIFSPAFYTSRYGYKMCLRIYLNGDGTGRGTHLSLFFVVMKGPNDALLRWPFNQKVTLMLLDQNNREHVIDAFRPDVTSSSFQRPVNDMNIASGCPLFCPVSKMEAKNSYVRDDAIFIKAIVDLTGL
partner: B1 partner
B4: Inducible T-cell costimulator (Homo sapiens), Q9Y6W8 (parent)
chain: B1 chain

Variants of: B1
Conditions: with tbk1_human TBK1, Q9UHD2

Row | Variant | effect of a mutation on the interaction
1 | S170A;S171A;S172A;V173A;H174A;D175A;P176A;N177A;G178A;E179A | decreasing interaction strength

Variants of: B1
Conditions: with tbk1_human TBK1, Q9UHD2
Remark: another data set of the same source

Row | Variant | effect of a mutation on the interaction
2 | Y180F | with no effect

Variants of: B2
Conditions: with tbk1_human TBK1, Q9UHD2

Row | Variant | effect of a mutation on the interaction
3 | S518A;S519A;S520A;F521A;K522A;K523A;P524A;T525A;G526A;E527A | decreasing interaction strength

Variants of: B3
Conditions: with tbk1_human TBK1, Q9UHD2

Row | Variant | effect of a mutation on the interaction
4 | S453A;S454A;S455A;F456A;Q457A;R458A;P459A;V460A;N461A;D462A | disrupting interaction strength

Variants of: B4
Conditions: with p85a_human PIK3R1, P27986
p85a_human PIK3R1, P27986, sequence (P27986 whole entry): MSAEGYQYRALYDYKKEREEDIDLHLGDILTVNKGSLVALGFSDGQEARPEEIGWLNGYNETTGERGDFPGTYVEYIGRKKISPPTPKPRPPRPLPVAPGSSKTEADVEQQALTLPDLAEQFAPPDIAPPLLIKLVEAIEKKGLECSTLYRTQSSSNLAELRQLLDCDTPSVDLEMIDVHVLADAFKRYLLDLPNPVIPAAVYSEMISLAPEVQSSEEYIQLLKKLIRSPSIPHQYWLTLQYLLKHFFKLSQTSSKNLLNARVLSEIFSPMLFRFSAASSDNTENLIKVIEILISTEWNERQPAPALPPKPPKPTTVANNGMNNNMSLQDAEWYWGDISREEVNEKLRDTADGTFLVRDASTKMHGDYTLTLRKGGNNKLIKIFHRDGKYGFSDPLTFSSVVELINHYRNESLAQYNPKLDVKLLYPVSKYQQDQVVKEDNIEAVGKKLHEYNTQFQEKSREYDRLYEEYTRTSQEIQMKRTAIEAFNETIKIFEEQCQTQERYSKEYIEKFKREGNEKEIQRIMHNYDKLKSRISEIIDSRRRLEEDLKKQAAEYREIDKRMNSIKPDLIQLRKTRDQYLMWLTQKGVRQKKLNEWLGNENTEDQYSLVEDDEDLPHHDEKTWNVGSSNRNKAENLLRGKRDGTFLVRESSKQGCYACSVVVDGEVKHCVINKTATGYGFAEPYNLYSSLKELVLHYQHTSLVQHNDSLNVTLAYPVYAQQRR

Row | Variant | effect of a mutation on the interaction
5 | Y180F | disrupting interaction strength

Variants of: B4
Conditions: with p85a_human PIK3R1, P27986
Remark: another data set of the same source

Row | Variant | effect of a mutation on the interaction
6 | S170A;S171A;S172A;V173A;H174A;D175A;P176A;N177A;G178A;E179A | with no effect
